From PMC3691326, “Structure of the Human Telomeric Stn1-Ten1 Capping Complex” (PLoS ONE, 2013)

T1: hStn1 (Homo sapiens, UniProt Q9H668 1-368)
T1 sequence: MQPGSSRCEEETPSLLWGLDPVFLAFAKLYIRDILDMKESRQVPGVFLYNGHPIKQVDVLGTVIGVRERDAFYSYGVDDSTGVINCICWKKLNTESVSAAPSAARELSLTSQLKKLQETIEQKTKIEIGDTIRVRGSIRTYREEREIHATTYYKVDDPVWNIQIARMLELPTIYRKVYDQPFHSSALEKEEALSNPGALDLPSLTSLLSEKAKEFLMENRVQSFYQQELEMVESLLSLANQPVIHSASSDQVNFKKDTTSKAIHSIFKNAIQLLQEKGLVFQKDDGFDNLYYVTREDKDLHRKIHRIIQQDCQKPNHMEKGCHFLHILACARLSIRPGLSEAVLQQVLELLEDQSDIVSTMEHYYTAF

T2: human Stn1, full length, wild type (human, UniProt Q9H668 1-368)
T2 construct: human Stn1 (hStn1), subunit of the human CST complex, full length; The methods describe the his-MBP tag for hStn1N only and say that full-length hStn1 was overexpressed and purified by the same procedure; also called hStn1; hStn1(WT); not shown: His (by 'the same procedure' as hStn1N), N-terminal, cleaved; MBP (by 'the same procedure' as hStn1N), N-terminal, cleaved
T2 sequence (looked up): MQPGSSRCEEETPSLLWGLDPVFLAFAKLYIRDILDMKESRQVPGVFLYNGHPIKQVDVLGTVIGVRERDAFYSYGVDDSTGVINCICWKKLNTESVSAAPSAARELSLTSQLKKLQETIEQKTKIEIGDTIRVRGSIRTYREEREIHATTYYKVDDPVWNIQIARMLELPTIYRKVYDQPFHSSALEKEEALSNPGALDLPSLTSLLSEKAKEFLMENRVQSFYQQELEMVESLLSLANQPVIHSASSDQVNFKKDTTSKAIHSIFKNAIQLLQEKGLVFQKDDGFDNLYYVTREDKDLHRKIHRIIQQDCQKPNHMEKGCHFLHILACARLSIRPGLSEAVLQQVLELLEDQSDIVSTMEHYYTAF

T3: hTen1 (Homo sapiens, UniProt Q86WV5 1-123)
T3 sequence: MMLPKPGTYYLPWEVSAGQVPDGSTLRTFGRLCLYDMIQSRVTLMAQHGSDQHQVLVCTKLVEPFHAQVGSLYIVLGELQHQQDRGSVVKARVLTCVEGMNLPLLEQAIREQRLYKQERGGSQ


Assays:
[1] = target: T1, hStn1; test: fluorescence polarization; FP: 100 mM NaCl, 5 mM MgCl2, 1 mM DTT, 5% glycerol, 1 mg/mL BSA, 2.5 nM 6-FAM DNA, room temperature; pH not stated; conditions: protein: recombinant; tags: none stated after TEV cleavage (his-MBP fusion removed); single strand
[2] = target: T2, human Stn1, full length, wild type; test: ITC; MicroCal iTC200; hTen1 at 125 µM injected into the cell with hStn1 at 12 µM; 20°C; 300 mM KCl, 25 mM Tris-HCl pH 7.5, 1 mM DTT, 5% glycerol; 2.47 µL injections; conditions: both partners purified
[3] = target: T3, hTen1; test: fluorescence polarization; not detected; FP: 100 mM NaCl, 5 mM MgCl2, 1 mM DTT, 5% glycerol, 1 mg/mL BSA, 2.5 nM 6-FAM DNA, room temperature; pH not stated; conditions: protein: recombinant; single strand

| Binder | Kd [1] | Kd [2] | further results |
| --- | --- | --- | --- |
| TTAGGGTTAGGGTTAGGG (ssDNA) [tel18] | ~200 nM |  |  |
| TTAGGGTTAGGG (ssDNA) [tel12] | ~1000 nM |  |  |
| human Ten1, full length, wild type (natural protein, UniProt Q86WV5 1-123, looked up, human Ten1 (hTen1), subunit of the human CST complex, full length; Purification is described only for the complex with hStn1N (cells mixed before lysis; tags cleaved by TEV); also called hTen1; hTen1(WT); source: E. coli BL21-CodonPlus(DE3) RIPL, purified; not shown: His, N-terminal, cleaved) MMLPKPGTYYLPWEVSAGQVPDGSTLRTFGRLCLYDMIQSRVTLMAQHGSDQHQVLVCTKLVEPFHAQVGSLYIVLGELQHQQDRGSVVKARVLTCVEGMNLPLLEQAIREQRLYKQERGGSQ |  | 6.3 nM |  |
| human Ten1 (R119Q), full length (natural protein, UniProt Q86WV5 1-123, looked up, human Ten1, full length, with R119Q; also called hTen1(R119Q); source: purified (pure, homogeneous)) MMLPKPGTYYLPWEVSAGQVPDGSTLRTFGRLCLYDMIQSRVTLMAQHGSDQHQVLVCTKLVEPFHAQVGSLYIVLGELQHQQDRGSVVKARVLTCVEGMNLPLLEQAIREQRLYKQEQGGSQ |  | 13 nM |  |
| human Ten1 (R27Q), full length (natural protein, UniProt Q86WV5 1-123, looked up, human Ten1, full length, with R27Q; also called hTen1(R27Q); source: purified (pure, homogeneous)) MMLPKPGTYYLPWEVSAGQVPDGSTLQTFGRLCLYDMIQSRVTLMAQHGSDQHQVLVCTKLVEPFHAQVGSLYIVLGELQHQQDRGSVVKARVLTCVEGMNLPLLEQAIREQRLYKQERGGSQ |  | 33 nM |  |
| human Ten1 (Y115A), full length (natural protein, UniProt Q86WV5 1-123, looked up, human Ten1, full length, with Y115A; also called hTen1(Y115A); source: purified (pure, homogeneous)) MMLPKPGTYYLPWEVSAGQVPDGSTLRTFGRLCLYDMIQSRVTLMAQHGSDQHQVLVCTKLVEPFHAQVGSLYIVLGELQHQQDRGSVVKARVLTCVEGMNLPLLEQAIREQRLAKQERGGSQ |  | 14 nM |  |
| GTTACGAAATACGGACAC (ssDNA) [rand18] | ~200 nM |  |  |
| TTAGGGTTAGGGTTAGGGTTAGGGTTAGGG (ssDNA) [tel30] |  |  | binding result [3]: no binding |
